{"source": "paper PMC7031854", "key": {"[1]": {"molecular_target": "GST-tagged lamprey γ-synuclein NTD (lamprey)", "assay": "pull-down; direct binding: 50-100 μg GST-tagged protein as bait, 100 μg purified recombinant bovine Hsc70 or truncation, without nucleotides; Western blot, band intensity in AU"}, "[2]": {"molecular_target": "GST-tagged lamprey γ-synuclein NTD (lamprey)", "assay": "pull-down; 50-100 μg GST-tagged protein as bait, 1-5 mg rat brain extract in HKET buffer (25 mM HEPES K+, 150 mM KCl, 1 mM EDTA, 1% Triton X-100, pH 7.4); bound proteins detected by Western blot, band intensity in AU"}, "[3]": {"molecular_target": "GST-tagged human α-synuclein NTD (a.a. 1-102) (human) (UniProt P37840)", "assay": "pull-down; 50-100 μg GST-tagged protein as bait, 1-5 mg lamprey CNS (brain and spinal cord) extract in HKET buffer; bound Hsc70 detected by Western blot, band intensity in AU"}, "[4]": {"molecular_target": "GST-tagged human α-synuclein (full length, wild type) (human) (UniProt P37840)", "assay": "pull-down; 50-100 μg GST-tagged protein as bait, 1-5 mg lamprey CNS (brain and spinal cord) extract in HKET buffer; bound Hsc70 detected by Western blot, band intensity in AU"}}, "data": [{"substance": "His-tagged recombinant bovine Hsc70 (from UniProt P19120 1-650) (natural protein)", "values": [{"measurement": "band intensity (AU)", "setting": "[1]", "value": 62.8, "unit": "AU"}]}, {"substance": "Hsc70 from rat brain extracts (from UniProt P63018 1-646) (natural protein)", "values": [{"measurement": "band intensity (AU)", "setting": "[2]", "value": 153, "unit": "AU"}]}, {"substance": "endogenous Hsc70 from lamprey brain and spinal cord extracts (natural protein)", "values": [{"measurement": "band intensity (AU)", "setting": "[3]", "value": 154, "unit": "AU"}, {"measurement": "band intensity (AU)", "setting": "[4]", "value": 106, "unit": "AU"}]}]}
